The source of these data is patent US20190352623A1.

The target of this test is HaloTag-NLpep86 fusion proteins (internal fusions). The test can be described thus: luminescence complementation in transfected HeLa cells.

In turn, NLpoly11S showed an efficiency of structural complementation relative to N- or C-terminal NLpep86 fusions to HaloTag of 1 to 40%.
